What was measured:
mPDGFR-β [1] = target: T1, mPDGFR-β (Mus musculus, UniProt P05622); experiment: Cross-species enzyme immunoassay, mPDGFR-β; format: binding; conditions: 100 nM; FIG. 17
T1 construct: mPDGFR-β
T1 sequence (P05622 32-530): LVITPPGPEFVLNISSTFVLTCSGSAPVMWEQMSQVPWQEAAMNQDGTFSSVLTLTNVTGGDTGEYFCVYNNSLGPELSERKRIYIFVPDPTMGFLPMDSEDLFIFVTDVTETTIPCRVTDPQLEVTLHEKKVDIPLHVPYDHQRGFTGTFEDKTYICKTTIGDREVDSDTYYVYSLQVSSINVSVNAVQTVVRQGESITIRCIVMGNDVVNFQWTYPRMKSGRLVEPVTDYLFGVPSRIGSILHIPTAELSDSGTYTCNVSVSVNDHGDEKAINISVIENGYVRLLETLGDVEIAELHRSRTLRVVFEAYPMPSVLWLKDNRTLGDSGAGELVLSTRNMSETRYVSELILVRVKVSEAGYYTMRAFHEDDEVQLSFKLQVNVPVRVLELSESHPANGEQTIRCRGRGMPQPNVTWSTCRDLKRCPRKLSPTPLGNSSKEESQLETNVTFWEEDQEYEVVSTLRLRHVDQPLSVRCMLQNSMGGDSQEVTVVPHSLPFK
Procedure: (§1) 100 ng of hPDGFR-β, mPDGFR-β, rhesus PDGFR-β (90215-C02H, Sino Biological Inc. Beijing, China), cynomolgus monkey PDGFR-β, Sus scrofa PDGFR-β-Fc chimera or TNF-α receptor extracellular domain-human Fc fusion protein was coated with 4° C. temperature O/N. After blocking the wells, sequential culture of the anti-hPDGFR-β scFv-Cκ-scFv fusion protein and the HRP conjugated anti-human Cκ antibody was followed in the same manner as in Example 3.
(§2) FIG. 17 is a graph showing an experiment of the cross-species reaction of the bispecific antibody against the anti-hPDGFR-β antibody according to the present invention. On the microtiter plates coated with hPDGFR-β, mPDGFR-β, Rhesus PDGFR-β, Cynomolgus monkey PDGFR-β, Sus scrofa PDGFR-β and control Fc coated, the bispecific antibody containing anti-hPDGFR-β antibody according to the present invention (100 nM) was reacted and the amount of bound bispecific antibody was measured using HRP conjugated anti-human Cκ antibody and TMB.

Rhesus PDGFR-β = target: T2, Rhesus PDGFR-β (Macaca mulatta, UniProt I0FLK2); experiment: Cross-species enzyme immunoassay, Rhesus PDGFR-β; format: binding; conditions: 100 nM; FIG. 17
T2 construct: Fc; purchased Sino Biological Inc. 90215-C02H
Procedure: as §1, §2

A-431 cells = experiment: Cytotoxicity in A-431 cells not expressing hPDGFR-β; format: cell-based; conditions: complex with cot-duo (DAR4); FIG. 16
Procedure: FIG. 16 is a graph showing that cytotoxicity assays of bispecific antibody related with anti-hPDGFR-β antibody complexed with cot-duo complexes on the cells not expressing hPDGFR-β. A-431 cells were treated with anti-hPDGFR-β x cotinine fusion protein and cot-duo (DAR4). The cellular ATP levels were measured to determine relative cell viability. Bispecific anti-mCD154 x cotinine scFv-Cκ-scFv fusion protein was used as a negative control. DMSO was used as a vehicle control of cot-duo. Results are shown as the mean±SD acquired from three repetitive experiments.
All of the anti-hPDGFR-β x cotinine scFv-Cκ-scFv fusion proteins had not higher toxicity than the control antibody anti-mCD154 x cotinine scFv-Cκ-scFv fusion protein (FIG. 16). Therefore, as a result of anti-proliferative analysis result, the bispecific antibody/cot-duo complex had higher cytotoxicity in the human pericyte cell lines expressing hPDGFR-β, compared to the control anti-mCD154 x cotinine scFv-Cκ-scFv, but there was no difference in cytotoxicity in A-431 not expressing hPDGFR-β, compared to the control anti-mCD154 x cotinine scFv-Cκ-scFv.

Sus scrofa PDGFR-β = experiment: Cross-species enzyme immunoassay, Sus scrofa PDGFR-β; format: binding; conditions: 100 nM; FIG. 17
Procedure: as §1, §2

PDGFR-β = PDGFR-β (Homo sapiens, UniProt P09619); experiment: Enzyme immunoassay on hPDGFR-β-Fc chimera coated plate; format: binding; set-up: made in house; conditions: 100 nM; FIG. 17
Procedure: 100 ng of hPDGFR-β-Fc chimera in the coating buffer or extracellular region of TNF-α receptor-human Fc fusion protein was coated on a microtiter plate at 4° C. O/N. Each well was blocked with 150 μL of 3% (w/v) BSA (bovine serum albumin) in PBS as a blocking agent at 37° C. for 1 hour. After treatment with various concentrations of bispecific antibodies of scFv-Cκ-scFv fusion protein (0.01 nM-1 μM), the analysis was performed in the same protocol of the concentration-dependent binding ability of anti-mPDGFRR-β scFv-Cκ-scFv fusion protein.
as §1

mPDGFR-β [2] = target: T1, mPDGFR-β; experiment: Competition enzyme immunoassay against PRb-CN01-rabbit Fc on mPDGFR-β-hFc; format: binding; conditions: competitor bispecific scFv-Cκ-scFv 100 nM; FIG. 19a
Procedure: It was carried out in substantially the same manner as the enzyme immunoassay method for antibody binding ability of Example 3, except that mPDGFR-β-hFc chimeric protein was coated with O/N on a microtiter plate at a temperature of 4° C. After incubating the blocking agent in each well, various concentrations of PRb-CN01-rabbit Fc (0.01 nM-1 μM) and PRb-CN01, control anti-HER2 antibody, and PRb-CN32 bispecific scFv-Cκ-scFv (100 nM) diluted in 3% BSA/PBS were reacted in each well at 37° C. for 2 hours. After washing the plate three times with PBST, the HRP-anti rabbit Fc antibody was reacted at 37° C. for 1 hour, and after washing, the reaction was performed using ABTS. Then, the absorbance was measured at 405 nm with a Multiscan Ascent microplate device (Labsystems, Helsinki, Finland) (FIG. 19A). FIG. 19a is the result of confirming the competition for the PRb-CN01 surrogate antibody.

Chain of Sus scrofa PDGFR-β (as listed by the source): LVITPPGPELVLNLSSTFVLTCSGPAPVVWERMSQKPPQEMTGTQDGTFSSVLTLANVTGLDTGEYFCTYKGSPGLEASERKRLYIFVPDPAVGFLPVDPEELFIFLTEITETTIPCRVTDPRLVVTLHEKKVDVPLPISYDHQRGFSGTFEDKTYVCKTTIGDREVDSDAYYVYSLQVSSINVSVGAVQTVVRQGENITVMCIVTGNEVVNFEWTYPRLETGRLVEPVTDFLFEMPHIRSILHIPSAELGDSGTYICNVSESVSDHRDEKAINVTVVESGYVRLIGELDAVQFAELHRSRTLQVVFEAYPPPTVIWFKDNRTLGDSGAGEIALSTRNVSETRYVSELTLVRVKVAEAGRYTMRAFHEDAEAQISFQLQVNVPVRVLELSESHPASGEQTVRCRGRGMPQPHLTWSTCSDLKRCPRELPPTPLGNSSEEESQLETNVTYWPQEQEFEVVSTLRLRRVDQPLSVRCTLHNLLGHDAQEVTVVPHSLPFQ
Chain of PDGFR-β (P09619 33-531): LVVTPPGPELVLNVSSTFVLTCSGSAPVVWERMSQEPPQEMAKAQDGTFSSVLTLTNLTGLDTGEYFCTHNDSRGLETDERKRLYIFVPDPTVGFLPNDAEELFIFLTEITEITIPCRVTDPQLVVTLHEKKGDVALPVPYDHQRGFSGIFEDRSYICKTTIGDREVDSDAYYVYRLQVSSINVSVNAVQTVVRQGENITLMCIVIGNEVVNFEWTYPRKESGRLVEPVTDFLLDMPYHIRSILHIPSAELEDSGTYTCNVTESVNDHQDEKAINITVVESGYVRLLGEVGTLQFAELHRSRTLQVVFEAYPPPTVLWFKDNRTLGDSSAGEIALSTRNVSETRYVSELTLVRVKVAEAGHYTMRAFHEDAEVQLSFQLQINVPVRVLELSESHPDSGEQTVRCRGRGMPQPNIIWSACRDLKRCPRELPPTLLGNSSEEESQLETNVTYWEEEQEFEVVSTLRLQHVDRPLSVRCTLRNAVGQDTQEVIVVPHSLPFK
T2 sequence (I0FLK2 33-531 limits assumed): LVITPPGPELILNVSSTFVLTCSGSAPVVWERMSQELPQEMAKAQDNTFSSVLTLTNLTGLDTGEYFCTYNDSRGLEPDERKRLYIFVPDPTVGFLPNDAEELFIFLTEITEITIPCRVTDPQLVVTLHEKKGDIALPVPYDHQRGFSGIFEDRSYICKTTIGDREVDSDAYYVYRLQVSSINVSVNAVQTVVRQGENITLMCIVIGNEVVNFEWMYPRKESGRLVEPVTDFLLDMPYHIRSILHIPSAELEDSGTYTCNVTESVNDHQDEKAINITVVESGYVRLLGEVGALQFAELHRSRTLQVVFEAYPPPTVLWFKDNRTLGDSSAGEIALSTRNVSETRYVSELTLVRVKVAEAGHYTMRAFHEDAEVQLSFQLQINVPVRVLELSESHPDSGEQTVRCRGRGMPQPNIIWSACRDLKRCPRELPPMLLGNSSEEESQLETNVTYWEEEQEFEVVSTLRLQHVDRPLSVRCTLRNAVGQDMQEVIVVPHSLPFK

Row | Molecule | cross-species binding, mPDGFR-β (mPDGFR-β [1]) | cross-species binding, Rhesus PDGFR-β (Rhesus PDGFR-β) | toxicity in A-431 cells compared to control anti-mCD154 x cotinine scFv-Cκ-scFv (A-431 cells) | cross-species binding, Sus scrofa PDGFR-β (Sus scrofa PDGFR-β) | cross-species binding, hPDGFR-β (PDGFR-β) | inhibition of binding of PRb-CN01-rabbit Fc to mPDGFR-β-hFc chimeric protein (mPDGFR-β [2])
1 | PRb-CN32: anti-hPDGFR-β scFv clone (VH SEQ ID NO 47, VL SEQ ID NO 48), tested as scFv-Cκ-anti-cotinine scFv bispecific antibody (antibody, V domains shown, VH of PRb-CN32; VL of PRb-CN32) VH: AVTLDESGGGLQTPRGTLSLVCKASGFTFSSFNMFWVRQAPGKGLEFVAGISTTGRYTGYGSAVQGRGTISRDNGQSTVRLQLNNLRAEDTGTYYCAKSAGSTYSYWDSDAGLIDAWGHGTEVIVSSTS VL: LTQPSSVSANLGETVKITCSGGSNAGSYYYGWYQQKSPGSAPVTVIYSNNQRPSDIPSRFSGSTSGSTSTLTITGVQVDDEAVYFCGSGDSSSIAAFGAGTTLTVL | confirmed to bind | confirmed to bind | equivalent cytotoxicity | confirmed to bind | confirmed to bind | inhibited
2 | PRb-CN26: anti-hPDGFR-β scFv clone (VH SEQ ID NO 55, VL SEQ ID NO 56), tested as scFv-Cκ-anti-cotinine scFv bispecific antibody (antibody, V domains shown, VH of PRb-CN26; VL of PRb-CN26) VH: AVTLDESGGGLQTPGGGLSLVCKASGFTFSDRGIHWVRQAPGKGLEWVAGIGNTGSYTAYAPAVKGRATISRDNGQSTVRLQLNNLRAEDTATYYCAKRGFMDAGGIDAWGHGTEVIVSSTS VL: LTQPSSVSANPGETVKITCSGGGSYAGSYYYGWYQQKSPGSAPVTVIYDNTNRPSNIPSRFSGSLSGSTDTLTITGVQAEDEAVYFCGGYDGISDTGIFGAGTTLTVL | confirmed to bind | confirmed to bind | equivalent cytotoxicity | confirmed to bind | confirmed to bind | –
3 | PRb-CN16: anti-hPDGFR-β scFv clone (VH SEQ ID NO 39, VL SEQ ID NO 40), tested as scFv-Cκ-anti-cotinine scFv bispecific antibody (antibody, V domains shown, VH of PRb-CN16; VL of PRb-CN16) VH: AVTLDESGGGLQTPGTALSLVCKASGFTFSSFNMAWVRQAPGKGLEFVGEISNTAGSTFYAPAVKGRATISRDNGQSTVRLQLNNLRAEDTAIYYCAKAAGTCYSHSCTGYIDAWGHGTEVIVSSTS VL: LTQPSSVSANPGETVKITCSGSSSSYGWYQQKSPGSAPVTLIYENNQRPSNIPSRFSGSKSGSTGTLTITGVQAEDEAVYYCGNADRSNSAGTFGAGTTLTVL | confirmed to bind | confirmed to bind | equivalent cytotoxicity | confirmed to bind | confirmed to bind | –
4 | PRb-CN01: anti-mPDGFR-β chicken scFv clone (VH SEQ ID NO 7, VL SEQ ID NO 8), tested as scFv-Cκ-anti-cotinine scFv bispecific antibody (antibody, V domains shown, VH of PRb-CN01; VL of PRb-CN01) VH: AVTLDESGGGLQTPGGALSLVCKASGFTFSDRAMHWVRQAPGKGLEWVGLITNTGGSTNYGAAVKGRATISRDNGQSTVRLQLNNLRAEDTGTYYCTRGVGSWAHGGRIDAWGHGTEVIVSS VL: LTQPSSVSANPGETVKITCSGGSGSYGWFQQKSPGSAPVTVIYSNNQRPSDIPSRFSGSKSGSTNTLTITGVQAEDEAIYYCGTRDSSYVGIFGAGTTLTVL | – | – | – | – | – | inhibited

Source: patent US12098206B2, “PDGF receptor antibody and use thereof” (Seoul National University R&DB Foundation, priority 2018, dated 2024)
